Measurements reported in paper PMC2173242 (The Journal of Cell Biology, 2002).

Biological target: Human recombinant His6-tagged Hsp70 (human, UniProt P0DMV8 1-641)
Assay: pull-down

Human recombinant His6-tagged Hsp70, sequence (P0DMV8 whole entry): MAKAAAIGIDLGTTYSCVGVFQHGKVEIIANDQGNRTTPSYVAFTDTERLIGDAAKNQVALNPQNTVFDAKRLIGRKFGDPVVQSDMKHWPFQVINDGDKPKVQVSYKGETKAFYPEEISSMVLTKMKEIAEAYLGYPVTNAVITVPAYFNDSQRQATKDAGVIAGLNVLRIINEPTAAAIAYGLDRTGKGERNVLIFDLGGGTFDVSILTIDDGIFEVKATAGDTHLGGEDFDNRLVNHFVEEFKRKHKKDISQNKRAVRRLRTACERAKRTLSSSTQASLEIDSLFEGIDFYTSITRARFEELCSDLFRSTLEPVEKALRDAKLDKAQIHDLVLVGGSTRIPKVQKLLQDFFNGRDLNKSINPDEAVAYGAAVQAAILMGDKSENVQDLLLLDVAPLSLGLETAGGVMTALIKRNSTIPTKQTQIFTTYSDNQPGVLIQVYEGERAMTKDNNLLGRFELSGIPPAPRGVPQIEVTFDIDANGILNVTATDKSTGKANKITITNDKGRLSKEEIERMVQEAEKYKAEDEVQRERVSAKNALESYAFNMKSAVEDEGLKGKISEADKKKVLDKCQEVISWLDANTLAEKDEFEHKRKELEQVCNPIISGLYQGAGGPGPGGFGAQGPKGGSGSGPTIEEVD

B1: Peptide C (peptide)
peptide: GCEVFGLGWRSYKH
ka (saturation of the effect of peptide C on binding of Hsp70-ADP to GST-CD40): ~30 µM
